Data taken from publication PMC10145791.

Experiments:
[1] = target: VEGF-A165 (Homo sapiens) (UniProt P15692); conditions: cited from earlier work
[2] = target: recombinant human neuropilin-1 (human) (UniProt O14786); assay: SPR; SPRi, stage 1: mixtures of NRP-1 (1 ng/mL) with VEGF-A (0.01, 0.10, 1.00, 10.0 ng/mL) dropped onto the immobilised mouse monoclonal anti-NRP-1 antibody (200 ng/mL on cysteamine/gold); read-out is the free NRP-1 that the antibody captures (recovery %); pH 7.4, 10 min

Row | Substance | Kd [1] [nM] | recovery of free NRP-1 (1 ng/mL added) on the antibody with 0.01 ng/mL VEGF-A [2] [%] | recovery of free NRP-1 (1 ng/mL added) on the antibody with 0.10 ng/mL VEGF-A [2] [%] | recovery of free NRP-1 (1 ng/mL added) on the antibody with 1.00 ng/mL VEGF-A [2] [%] | recovery of free NRP-1 (1 ng/mL added) on the antibody with 10.0 ng/mL VEGF-A [2] [%]
1 | neuropilin-1 soluble (from UniProt O14786) | 7.5 |  |  |  | 
2 | vascular endothelial growth factor VEGFA (from UniProt P15692 1-395) (ligand) |  | 98 | 85 | 36 | < 1
